Laboratory results as given in PMC10189128 (Frontiers in Cellular and Infection Microbiology, 2023).

Molecular target: T1, Mouse Fc-fused SARS-CoV-2 RBD (SARS-CoV-2, original strain (Wuhan-Hu-1 …, UniProt P0DTC2))
T1 construct: source: bought: Sino Biological
Test: SPR
Conditions: both partners purified

B1: anti-SARS-CoV-2 single-chain variable fragment S1-16 (scFv, V domains shown)
VH: QVQLVQSGAEVKKPGASVKVSCKASGYTFTSYYMHWVRQAPGQGLEWMGIINSSGGSTSYAQKFQGRVTMTRDTSTSTVYMELSSLRSEDTAVYYCARPPRNYYDRSGYYQRAEYFQHWGQGTLVTVSS
VL: DIQLTQSPSSLSASVGDRVTITCQASQDISNYLNWYQQRPGKAPKLLIYDASNLETGVPSRFSGSGSGTDFTFTISSLQPEDIATYYCQQYDNPPLTFGGGTKLEIK
notes: also called scFv S1-16; not shown: His6, C-terminal, kept
For B1, the Kd was 135 nM.
